Among the data in paper PMC10361524 are Kd values, retold here.

The target in assay [1] is IL-20R2D (human), Q6UXL0. Nature of the assay: MST; as a1, but the IL-20R2D variant irradiated at 365 nm (100 mW, 5 min) before use.
Assay [2] deals with IL-20R2D Y70NBY + UV (human), Q6UXL0. The assay is described as above.
The target in assay [3] is T1, IL-20R2D Y70NBY/Y74NBY (human), Q6UXL0.
T1 chain: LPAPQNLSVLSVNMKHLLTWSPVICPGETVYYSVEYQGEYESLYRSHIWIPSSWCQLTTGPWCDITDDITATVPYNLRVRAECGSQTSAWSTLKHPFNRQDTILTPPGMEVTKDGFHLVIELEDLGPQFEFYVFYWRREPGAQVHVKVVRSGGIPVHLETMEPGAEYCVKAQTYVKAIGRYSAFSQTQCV
Nature of the assay: MST; IL-20R2D variants labelled with RED-tris-NTA dye on the His tag, held constant at 50 nM; unlabelled IL-24B4 titrated; 50 mM Tris pH 8, 100 mM NaCl, 0.02% pluronic F127; not irradiated.

Assay [4] addresses IL-20R2D (human), Q6UXL0. The assay is described as above.
Assay [5] addresses T2, IL-20R2D Y74NBY (human), Q6UXL0.
T2 chain: T1 chain
The description is as above.

The target in assay [6] is T3, IL-20R2D Y70NBY (human), Q6UXL0.
T3 chain: T1 chain
The description is as above.

In assay [7] the target is IL-20R2D (human), Q6UXL0. Described as above. This is another data set of the same source.
For assay [8], the target named is T4, IL-24B4 displayed on the yeast surface (version with an N-terminal linker of 17 amino acids, fused to a fluorescent protein) (human). Nature of the assay: flow cytometry on cells; yeast surface display of IL-24B4 (suspension enriched with 0.5% IL-24S yeast); CF640R-labelled IL-20R2D variants at 500, 100, 20, 4 and 0.1 nM in PBSB with 10 nM bilirubin, overnight at 4°C; apparent Kd (affinity and avidity); not irradiated. (In general: In flow cytometry, cells or beads pass a laser one at a time.)
T4 sequence (main, as listed by the source): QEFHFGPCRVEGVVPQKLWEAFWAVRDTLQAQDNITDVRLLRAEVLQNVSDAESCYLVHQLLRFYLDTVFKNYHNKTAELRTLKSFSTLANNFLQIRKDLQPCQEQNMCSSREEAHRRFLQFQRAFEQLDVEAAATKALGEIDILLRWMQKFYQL

Assay [9] addresses T4, IL-24B4 displayed on the yeast surface …. Nature of the assay: flow cytometry on cells; as a3, but the labelled IL-20R2D variant UV irradiated (365 nm); apparent Kd.

B1: IL-24B4 (SUMO-cleaved, C-terminal Strep-tag), Q13007 52-206 (ligand)
chain: FHFGPCRVEGVVPQELWEAFWAVRDTLQAQDNITDVRLLRAEVLQNVSDAESCYLVHQLLRFYLDTVFKNYHNKTAELRTLKSFSTLANNFVLIVSDLQPCQEQNMCSSREEAHRRFLQFQRAFEQLDVEAAATKALGEIDILLTWMQKFYQL
modifications: here or on the partner: designed disulfide Cys59-Cys117 (UniProt numbering)
For B1, the Kd with IL-20R2D (human), Q6UXL0 [1] is 3700 nM; in assay [2], 3300 nM; in [3], 570 nM; with IL-20R2D (human), Q6UXL0 [4] it was 630 nM; in [5], 430 nM; in assay [6], over 94000 nM. Moreover, in the assay with IL-20R2D (human), Q6UXL0 [7], the Kd worked out at 500 nM.

B2: IL-20R2D Y70NBY, Q6UXL0 30-233 (receptor)
chain: T1 chain
modifications: here or on the partner: ortho-nitrobenzyl-tyrosine (NBY) at 70
Turning to B2, the Kd in [8] was found to be 2000 nM.

B3: IL-20R2D Y70NBY + UV, Q6UXL0 30-233 (receptor)
chain: T1 chain
modifications: here or on the partner: UV-decaged, Tyr70 restored to canonical tyrosine; designed disulfide Cys59-Cys117
Consider B3, for which, in assay [9], the Kd was determined as 7.6 nM.

B4: IL-20R2D, Q6UXL0 30-233 (receptor)
chain: T1 chain
modifications: here or on the partner: designed disulfide Cys59-Cys117 (UniProt numbering)
For the molecule B4, the Kd in [8] is 5 nM; in assay [9], 9.6 nM.
